Measurements as given in article PMC6021441, “Structural basis of the correct subunit assembly, aggregation, and intracellular degradation of nylon hydrolase” (Scientific Reports, 2018).
Several values for one entry are separate records, joined by “and”; a condition that tells them apart may be missing. Equal values may be shown once.

Assays:
[1] = molecular target: nylon hydrolase NylCK (wild type, Kocuria), active enzyme: alpha-beta heterodimer (Kocuria); assay: AUC; sedimentation velocity (40,000 rpm) and sedimentation equilibrium (14,000 rpm); each NylC enzyme 0.34 mg ml^-1 in phosphate buffer, 20 °C; self-association of the monomer units
[2] = molecular target: the molecule itself; assay: crystal structure; sitting-drop vapor diffusion, ammonium sulfate, 0.1 M HEPES pH 7.5, 0.2 M NaCl, 25% glycerol; space group C222_(1), two molecules (A/B dimer) in the asymmetric unit, tetramer by the crystallographic two-fold axis
[3] = molecular target: the molecule itself; assay: AUC; sedimentation velocity (40,000 rpm) and sedimentation equilibrium (14,000 rpm); each NylC enzyme 0.34 mg ml^-1 in phosphate buffer, 20 °C; self-association of the monomer units

| stoichiometry N [1] | Molecule | stoichiometry N [2] | stoichiometry N [3] |
| --- | --- | --- | --- |
| 4 | nylon hydrolase NylCK (wild type, Kocuria), active enzyme: alpha-beta heterodimer (from UniProt Q79F77 1-266; Q79F77 267-355) |  |  |
|  | nylon hydrolase NylCp2 (wild type, Arthrobacter plasmid pOAD2-encoded NylC), active enzyme: alpha-beta heterodimer (enzyme, NylCp2, alpha subunit (27 kDa) made by autocleavage of the 355-residue precursor between Asn266 and Thr267; NylCp2, beta subunit (9 kDa) made by autocleavage of the 355-residue precursor between Asn266 and Thr267; also called wild-type NylCp2; monomer molecule A-D; source: E. coli JM109, purified (ammonium sulfate fractionation, anion-exchange, gel filtration)) chain 1: MNTTPVHALTDIDGGIAVDPAPRLAGPPVFGGPGNDAFDLAPVRSTGREMLRFDFPGVSIGAAHYEEGPTGATVIHIPAGARTAVDARGGAVGLSGGYDFNHAICLAGGAGYGLEAGAGVSDALLERLEHRTGFAELQLVSSAVIYDFSARSTAVYPDKALGRAALEFAVPGEFPQGRAGAGMSASAGKVDWDRTEITGQGAAFRRLGDVRILAVVVPNPVGVIVDRAGTVVRGNYDAQTGVRRHPVFDYQEAFAEQVPPVTEAGN chain 2: TTISAIVTNVRMSPVELNQFAKQVHSSMHRGIQPFHTDMDGDTLFAVTTDEIDLPTTPGSSRGRLSVNATALGAIASEVMWDAVLEAGK | 4 | 3 and 2 |
|  | NylCp2-G^122Y^130 mutant enzyme (D122G/H130Y), alpha-beta heterodimer (enzyme, Arthrobacter, NylCp2 alpha subunit with D122G and H130Y; NylCp2 beta subunit; also called NylC-G^122Y^130; source: E. coli JM109, purified (ammonium sulfate fractionation, anion-exchange, gel filtration)) chain 1: MNTTPVHALTDIDGGIAVDPAPRLAGPPVFGGPGNDAFDLAPVRSTGREMLRFDFPGVSIGAAHYEEGPTGATVIHIPAGARTAVDARGGAVGLSGGYDFNHAICLAGGAGYGLEAGAGVSGALLERLEYRTGFAELQLVSSAVIYDFSARSTAVYPDKALGRAALEFAVPGEFPQGRAGAGMSASAGKVDWDRTEITGQGAAFRRLGDVRILAVVVPNPVGVIVDRAGTVVRGNYDAQTGVRRHPVFDYQEAFAEQVPPVTEAGN chain 2: TTISAIVTNVRMSPVELNQFAKQVHSSMHRGIQPFHTDMDGDTLFAVTTDEIDLPTTPGSSRGRLSVNATALGAIASEVMWDAVLEAGK | 4 |  |
|  | NylCp2-G^122 mutant enzyme (D122G), alpha-beta heterodimer (enzyme, Arthrobacter, NylCp2 alpha subunit with D122G; NylCp2 beta subunit; also called Gly122 enzyme; source: E. coli JM109, purified (ammonium sulfate fractionation, anion-exchange, gel filtration)) chain 1: MNTTPVHALTDIDGGIAVDPAPRLAGPPVFGGPGNDAFDLAPVRSTGREMLRFDFPGVSIGAAHYEEGPTGATVIHIPAGARTAVDARGGAVGLSGGYDFNHAICLAGGAGYGLEAGAGVSGALLERLEHRTGFAELQLVSSAVIYDFSARSTAVYPDKALGRAALEFAVPGEFPQGRAGAGMSASAGKVDWDRTEITGQGAAFRRLGDVRILAVVVPNPVGVIVDRAGTVVRGNYDAQTGVRRHPVFDYQEAFAEQVPPVTEAGN chain 2: TTISAIVTNVRMSPVELNQFAKQVHSSMHRGIQPFHTDMDGDTLFAVTTDEIDLPTTPGSSRGRLSVNATALGAIASEVMWDAVLEAGK | 4 |  |
|  | NylCp2-R^122 mutant enzyme (D122R), alpha-beta heterodimer (enzyme, Arthrobacter, NylCp2 alpha subunit with D122R; NylCp2 beta subunit; source: E. coli JM109, purified (ammonium sulfate fractionation, anion-exchange, gel filtration)) chain 1: MNTTPVHALTDIDGGIAVDPAPRLAGPPVFGGPGNDAFDLAPVRSTGREMLRFDFPGVSIGAAHYEEGPTGATVIHIPAGARTAVDARGGAVGLSGGYDFNHAICLAGGAGYGLEAGAGVSRALLERLEHRTGFAELQLVSSAVIYDFSARSTAVYPDKALGRAALEFAVPGEFPQGRAGAGMSASAGKVDWDRTEITGQGAAFRRLGDVRILAVVVPNPVGVIVDRAGTVVRGNYDAQTGVRRHPVFDYQEAFAEQVPPVTEAGN chain 2: TTISAIVTNVRMSPVELNQFAKQVHSSMHRGIQPFHTDMDGDTLFAVTTDEIDLPTTPGSSRGRLSVNATALGAIASEVMWDAVLEAGK | 4 |  |
|  | NylCp2-Y^130 mutant enzyme (H130Y), alpha-beta heterodimer (enzyme, Arthrobacter, NylCp2 alpha subunit with H130Y; NylCp2 beta subunit; source: E. coli JM109, purified (ammonium sulfate fractionation, anion-exchange, gel filtration)) chain 1: MNTTPVHALTDIDGGIAVDPAPRLAGPPVFGGPGNDAFDLAPVRSTGREMLRFDFPGVSIGAAHYEEGPTGATVIHIPAGARTAVDARGGAVGLSGGYDFNHAICLAGGAGYGLEAGAGVSDALLERLEYRTGFAELQLVSSAVIYDFSARSTAVYPDKALGRAALEFAVPGEFPQGRAGAGMSASAGKVDWDRTEITGQGAAFRRLGDVRILAVVVPNPVGVIVDRAGTVVRGNYDAQTGVRRHPVFDYQEAFAEQVPPVTEAGN chain 2: TTISAIVTNVRMSPVELNQFAKQVHSSMHRGIQPFHTDMDGDTLFAVTTDEIDLPTTPGSSRGRLSVNATALGAIASEVMWDAVLEAGK | 4 |  |
|  | NylCp2-G^122Y^130A^36Q^263 mutant enzyme (D122G/H130Y/D36A/E263Q), alpha-beta heterodimer (enzyme, Arthrobacter, NylCp2 alpha subunit with four substitutions; NylCp2 beta subunit; also called NylC-G^122Y^130A^36Q^263; source: E. coli JM109, purified (ammonium sulfate fractionation, anion-exchange, gel filtration)) chain 1: MNTTPVHALTDIDGGIAVDPAPRLAGPPVFGGPGNAAFDLAPVRSTGREMLRFDFPGVSIGAAHYEEGPTGATVIHIPAGARTAVDARGGAVGLSGGYDFNHAICLAGGAGYGLEAGAGVSGALLERLEYRTGFAELQLVSSAVIYDFSARSTAVYPDKALGRAALEFAVPGEFPQGRAGAGMSASAGKVDWDRTEITGQGAAFRRLGDVRILAVVVPNPVGVIVDRAGTVVRGNYDAQTGVRRHPVFDYQEAFAEQVPPVTQAGN chain 2: TTISAIVTNVRMSPVELNQFAKQVHSSMHRGIQPFHTDMDGDTLFAVTTDEIDLPTTPGSSRGRLSVNATALGAIASEVMWDAVLEAGK |  | 4 |
|  | nylon hydrolase NylCA (wild type, Agromyces), active enzyme: alpha-beta heterodimer (enzyme, NylCA of Agromyces, alpha subunit; NylCA of Agromyces, beta subunit; source: E. coli clone (plasmid pSKRC4), purified to homogeneity as previously reported) chain 1: MNTTPVHALTDIDGGIAVDPAPRLAGPPVFGGPGNDAFDLAPVRSTGREMLRFDFPGVSIGAAHYEEGPTGATVIHIPAGARTAVDARGGAVGLSGGYDFNHAICLAGGASYGLEAGAGVSGALLERLEYRTGFAEAQLVSSAVIYDFSARSTAVYPDKALGRAALEFAVPGEFPQGRAGAGMSASAGKVDWDRTEITGQGAAFRRLGDVRILAVVVPNPVGVIMDRAGTVVRGNYDAQTGVRRHPVFDYQEAFAEQVPPVTEAGN chain 2: TTISAIVTNVRMSPVELNQFAKQVHSSMHRGIQPFHTDMDGDTLFAVTTDEIDLPTTPGSSRGRLSVNATALGAIASEVMWDAVLEAGK |  | 4 |
|  | NylCp2-V^122 mutant enzyme (D122V), alpha-beta heterodimer (enzyme, Arthrobacter, NylCp2 alpha subunit with D122V; NylCp2 beta subunit; source: E. coli JM109, purified (ammonium sulfate fractionation, anion-exchange, gel filtration)) chain 1: MNTTPVHALTDIDGGIAVDPAPRLAGPPVFGGPGNDAFDLAPVRSTGREMLRFDFPGVSIGAAHYEEGPTGATVIHIPAGARTAVDARGGAVGLSGGYDFNHAICLAGGAGYGLEAGAGVSVALLERLEHRTGFAELQLVSSAVIYDFSARSTAVYPDKALGRAALEFAVPGEFPQGRAGAGMSASAGKVDWDRTEITGQGAAFRRLGDVRILAVVVPNPVGVIVDRAGTVVRGNYDAQTGVRRHPVFDYQEAFAEQVPPVTEAGN chain 2: TTISAIVTNVRMSPVELNQFAKQVHSSMHRGIQPFHTDMDGDTLFAVTTDEIDLPTTPGSSRGRLSVNATALGAIASEVMWDAVLEAGK | 4 |  |
|  | NylCp2-K^122 mutant enzyme (D122K), alpha-beta heterodimer (enzyme, Arthrobacter, NylCp2 alpha subunit with D122K; NylCp2 beta subunit; source: E. coli JM109, purified (ammonium sulfate fractionation, anion-exchange, gel filtration)) chain 1: MNTTPVHALTDIDGGIAVDPAPRLAGPPVFGGPGNDAFDLAPVRSTGREMLRFDFPGVSIGAAHYEEGPTGATVIHIPAGARTAVDARGGAVGLSGGYDFNHAICLAGGAGYGLEAGAGVSKALLERLEHRTGFAELQLVSSAVIYDFSARSTAVYPDKALGRAALEFAVPGEFPQGRAGAGMSASAGKVDWDRTEITGQGAAFRRLGDVRILAVVVPNPVGVIVDRAGTVVRGNYDAQTGVRRHPVFDYQEAFAEQVPPVTEAGN chain 2: TTISAIVTNVRMSPVELNQFAKQVHSSMHRGIQPFHTDMDGDTLFAVTTDEIDLPTTPGSSRGRLSVNATALGAIASEVMWDAVLEAGK | 4 |  |
|  | NylCp2-A^137 mutant (L137A), uncleaved precursor (enzyme, Arthrobacter, UniProt Q79F77 1-355, looked up, NylCp2 with L137A, obtained as the uncleaved precursor (36 kDa; 355 residues); source: E. coli JM109, purified (ammonium sulfate fractionation, anion-exchange, gel filtration)) MNTTPVHALTDIDGGIAVDPAPRLAGPPVFGGPGNDAFDLAPVRSTGREMLRFDFPGVSIGAAHYEEGPTGATVIHIPAGARTAVDARGGAVGLSGGYDFNHAICLAGGAGYGLEAGAGVSDALLERLEHRTGFAEAQLVSSAVIYDFSARSTAVYPDKALGRAALEFAVPGEFPQGRAGAGMSASAGKVDWDRTEITGQGAAFRRLGDVRILAVVVPNPVGVIVDRAGTVVRGNYDAQTGVRRHPVFDYQEAFAEQVPPVTEAGNTTISAIVTNVRMSPVELNQFAKQVHSSMHRGIQPFHTDMDGDTLFAVTTDEIDLPTTPGSSRGRLSVNATALGAIASEVMWDAVLEAGK |  | 2 |
|  | NylCp2-G^122A^137 mutant (D122G/L137A), mixture of precursor and alpha and beta subunits (enzyme, Arthrobacter, UniProt Q79F77 1-355, looked up, NylCp2 with D122G and L137A; obtained as a mixture of the uncleaved precursor and the alpha (to N266) and beta (from T267) subunits; Written as the one-chain precursor; part of the sample was cleaved at Asn266/Thr267; source: E. coli JM109, purified (ammonium sulfate fractionation, anion-exchange, gel filtration)) MNTTPVHALTDIDGGIAVDPAPRLAGPPVFGGPGNDAFDLAPVRSTGREMLRFDFPGVSIGAAHYEEGPTGATVIHIPAGARTAVDARGGAVGLSGGYDFNHAICLAGGAGYGLEAGAGVSGALLERLEHRTGFAEAQLVSSAVIYDFSARSTAVYPDKALGRAALEFAVPGEFPQGRAGAGMSASAGKVDWDRTEITGQGAAFRRLGDVRILAVVVPNPVGVIVDRAGTVVRGNYDAQTGVRRHPVFDYQEAFAEQVPPVTEAGNTTISAIVTNVRMSPVELNQFAKQVHSSMHRGIQPFHTDMDGDTLFAVTTDEIDLPTTPGSSRGRLSVNATALGAIASEVMWDAVLEAGK |  | 3 |
